Values belong to the molecule of their own block, whether it stands above or below them.
Tests used:
[1] = target: IL-20RA/IL-20RB heterodimeric receptor (human)
[2] = target: IL-20RA/IL-20RB heterodimeric receptor (human); remark: listed apart in the source
[3] = target: IL-20RA/IL-20RB heterodimeric receptor (human); remark: listed apart in the source
[4] = target: IL-20RA/IL-20RB heterodimeric receptor (human); remark: listed apart in the source
[5] = target: IL-20RA/IL-20RB heterodimeric receptor (human); remark: listed apart in the source
125I-labeled IL-20 = target: T1, 125I-labeled IL-20 (Homo sapiens (Human), UniProt Q9NYY1, 125I-labeled); assay: radiolabeled ligand binding to BHK cells stably transfected with IL-20RA and IL-20RB
T1 sequence: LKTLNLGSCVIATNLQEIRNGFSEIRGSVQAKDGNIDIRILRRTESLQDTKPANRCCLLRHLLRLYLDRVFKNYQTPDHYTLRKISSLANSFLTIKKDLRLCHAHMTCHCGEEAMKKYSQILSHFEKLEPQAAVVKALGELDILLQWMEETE
Method: The specificity and affinity of IL-20 for its receptor was determined using BHK cells stably transfected with IL-20RA, IL-20RB or both receptor subunits. […] Binding of ¹²⁵I-labeled IL-20 was eliminated in the presence of 100-fold excess of unlabeled IL-20 but not with 100-fold excess of the unrelated cytokine, IL-21.

- half maximal response, proliferation of BaF3 cells co-transfected with IL-20RA and IL-20RB [1]: 3.4 pM
- proliferation of BaF3 cells co-transfected with IL-20RA and IL-20RB [1]: 1.1 pM
- half-maximal response, luciferase reporter in HaCaT cells, IL-20 in combination with a submaximal dose of IL-1beta [2]: 0.5 nM
- half maximal response, SRE/STAT luciferase reporter in HaCaT cells [3]: 2.3 nM
- half-maximal response, STAT-luciferase in BHK cells transfected with both receptor subunits [4]: 5.7 pM
- half-maximal IL-20 concentration, STAT3 nuclear translocation in HaCaT cells [5]: 7 nM
Molecule: Interleukin-20 (IL-20) (from UniProt Q9NYY1) (ligand)

- Kd (125I-labeled IL-20): ~1.5 nM
B1: IL-20RA/IL-20RB heterodimeric receptor (receptor)
chain 1: VPCVSGGLPKPANITFLSINMKNVLQWTPPEGLQGVKVTYTVQYFIYGQKKWLNKSECRNINRTYCDLSAETSDYEHQYYAKVKAIWGTKCSKWAESGRFYPFLETQIGPPEVALTTDEKSISVVLTAPEKWKRNPEDLPVSMQQIYSNLKYNVSVLNTKSNRTWSQCVTNHTLVLTWLEPNTLYCVHVESFVPGPPRRAQPSEKQCARTLKDQSSEFKAKIIFWYVLPISITVFLFSVMGYSIYRYIHVGKEKHPANLILIYGNEFDKRFFVPAEKIVINFITLNISDDSKISHQDMSLLGKSSDVSSLNDPQPSGNLRPPQEEEEVKHLGYASHLMEIFCDSEENTEGTSFTQQESLSRTIPPDKTVIEYEYDVRTTDICAGPEEQELSLQEEVSTQGTLLESQAALAVLGPQTLQYSYTPQLQDLDPLAQEHTDSEEGPEEEPSTTLVDWDPQTGRLCIPSLSSFDQDSEGCEPSEGDGLGEEGLLSRLYEEPAPDRPPGENETYLMQFMEEWGLYVQMEN
chain 2: DEVAILPAPQNLSVLSTNMKHLLMWSPVIAPGETVYYSVEYQGEYESLYTSHIWIPSSWCSLTEGPECDVTDDITATVPYNLRVRATLGSQTSAWSILKHPFNRNSTILTRPGMEITKDGFHLVIELEDLGPQFEFLVAYWRREPGAEEHVKMVRSGGIPVHLETMEPGAAYCVKAQTFVKAIGRYSAFSQTECVEVQGEAIPLVLALFAFVGFMLILVVVPLFVWKMGRLLQYSCCPVVVLPDTLKITNSPQKLISCRREEVDACATAVMSPEELLRAWIS

— patent publication US20100197575A1, “SOLUBLE INTERLEUKIN-20 RECEPTOR” (ZymoGenetics, Inc., published 2010)
